Measured values from publication PMC9352680, “A comprehensive thermodynamic model for RNA binding by the Saccharomyces cerevisiae Pumilio protein PUF4”.
Substitutions are numbered along the chain they refer to. In names and notes the source's numbering stands.

B1: Ic_S4_P5E.1_K5.1_C5.1_H5.1_A5.1_[A7T]_F5.1_[T8G]_[T9C]_[A10C]_T5.1 (ssRNA)
RNA: UUUGACAACUGAUCGUUCUUUCUUGUAUUUGCCUUCUUUCUCGAUCAGUUGUCUUU
B2: Ic_S4_P5E.1_K5.1_C5.1_H5.1_A5.1_[T5A]_[T6C]_[A7T]_F5.1_[T8G]_[T9C]_[A10T]_T5.1 (ssRNA)
RNA: B1 RNA with U28A, U29C, C33U
B3: Ic_S4_P5E.1_K5.1_C5.1_H5.1_A5.1_[T5C]_[T6A]_[A7C]_F5.1_[T9C]_[A10C]_T5.1 (ssRNA)
RNA: B1 RNA with U28C, U29A, U30C, G31U
B4: Ic_S4_P5E.1_K5.1_C5.1_H5.1_A5.1_[T5C]_F5.1_[T8A]_[T9A]_[A10T]_T5.1 (ssRNA)
RNA: B1 RNA with U28C, U30A, G31A, C32A, C33U
B5: Ic_S4_P5E.1_K5.1_C5.1_H5.1_A5.1_[T5C]_[T6C]_F5.1_[T8G]_[T9C]_[A10T]_T5.1 (ssRNA)
RNA: B1 RNA with U28C, U29C, U30A, C33U
B6: Ic_S4_P5E.1_K5.1_C5.1_H5.1_A5.1_[T5C]_[T6A]_[A7C]_F5.1_[T8A]_[T9A]_T5.1 (ssRNA)
RNA: B1 RNA with U28C, U29A, U30C, G31A, C32A, C33A
B7: Ic_S4_P5E.1_K5.1_C5.1_H5.1_A5.1_[T5C]_[T6G]_[A7T]_F5.1_[T9A]_T5.1 (ssRNA)
RNA: B1 RNA with U28C, U29G, G31U, C32A, C33A
B8: Ic_S4_P5E.1_K5.1_C5.1_H5.1_A5.1_[T5A]_F5.1_[T8A]_[A10T]_T5.1 (ssRNA)
RNA: B1 RNA with U28A, U30A, G31A, C32U, C33U
B9: Ic_S4_P5E.1_K5.1_C5.1_H5.1_A5.1_[T5A]_[T6C]_[A7C]_F5.1_[T8C]_[T9A]_[A10T]_T5.1 (ssRNA)
RNA: B1 RNA with U28A, U29C, U30C, G31C, C32A, C33U
B10: Ic_S4_P5E.1_K5.1_C5.1_H5.1_A5.1_[T5A]_[A7C]_F5.1_[T8C]_[T9G]_[A10G]_T5.1 (ssRNA)
RNA: B1 RNA with U28A, U30C, G31C, C32G, C33G
B11: Ic_S4_P5E.1_K5.1_C5.1_H5.1_A5.1_[T5C]_[A7T]_F5.1_[T8C]_[T9A]_[A10T]_T5.1 (ssRNA)
RNA: B1 RNA with U28C, G31C, C32A, C33U
B12: Ic_S4_P5E.1_K5.1_C5.1_H5.1_A5.1_[T6C]_[A7T]_F5.1_[T8A]_[A10C]_T5.1 (ssRNA)
RNA: B1 RNA with U29C, G31A, C32U
B13: Ic_S4_P5E.1_K5.1_C5.1_H5.1_A5.1_[T5C]_[T6A]_[A7C]_F5.1_[T8C]_[A10G]_T5.1 (ssRNA)
RNA: B1 RNA with U28C, U29A, U30C, G31C, C32U, C33G
B14: Ic_S4_P5E.1_K5.1_C5.1_H5.1_A5.1_[T5C]_[A7T]_F5.1_[T8C]_[T9G]_[A10T]_T5.1 (ssRNA)
RNA: B1 RNA with U28C, G31C, C32G, C33U
B15: Ic_S4_P5E.1_K5.1_C5.1_H5.1_A5.1_[A7C]_F5.1_[T8C]_[T9C]_T5.1 (ssRNA)
RNA: B1 RNA with U30C, G31C, C33A
B16: Ic_S4_P5E.1_K5.1_C5.1_H5.1_A5.1_[T5G]_[A7T]_F5.1_[T8A]_[A10T]_T5.1 (ssRNA)
RNA: B1 RNA with U28G, G31A, C32U, C33U
B17: Ic_S4_P5E.1_K5.1_C5.1_H5.1_A5.1_[T5C]_[T6C]_F5.1_[T9A]_[A10C]_T5.1 (ssRNA)
RNA: B1 RNA with U28C, U29C, U30A, G31U, C32A
B18: Ic_S4_P5E.1_K5.1_C5.1_H5.1_A5.1_[T5A]_[A7T]_F5.1_[T8G]_[T9C]_[A10C]_T5.1 (ssRNA)
RNA: B1 RNA with U28A
B19: Ic_S4_P5E.1_K5.1_C5.1_H5.1_A5.1_[T5C]_[T6G]_[A7T]_F5.1_[T8A]_[T9A]_[A10T]_T5.1 (ssRNA)
RNA: B1 RNA with U28C, U29G, G31A, C32A, C33U
B20: Ic_S4_P5E.1_K5.1_C5.1_H5.1_A5.1_[T5A]_[T6A]_[A7T]_F5.1_[T8A]_[T9A]_[A10C]_T5.1 (ssRNA)
RNA: B1 RNA with U28A, U29A, G31A, C32A
B21: Ic_S4_P5E.1_K5.1_C5.1_H5.1_A5.1_[T5C]_[T6G]_[A7T]_F5.1_[T8G]_[T9G]_[A10T]_T5.1 (ssRNA)
RNA: B1 RNA with U28C, U29G, C32G, C33U
B22: Ic_S4_P5E.1_K5.1_C5.1_H5.1_A5.1_[A7T]_F5.1_[T8G]_[T9C]_[A10G]_T5.1 (ssRNA)
RNA: B1 RNA with C33G
B23: Ic_S4_P5E.1_K5.1_C5.1_H5.1_A5.1_[T6A]_[A7C]_F5.1_[T8G]_[T9G]_[A10T]_T5.1 (ssRNA)
RNA: B1 RNA with U29A, U30C, C32G, C33U
B24: Ic_S4_P5E.1_K5.1_C5.1_H5.1_A5.1_[T5A]_[T6A]_[A7C]_F5.1_[T8G]_[T9C]_[A10C]_T5.1 (ssRNA)
RNA: B1 RNA with U28A, U29A, U30C
B25: Ic_S4_P5E.1_K5.1_C5.1_H5.1_A5.1_[A7T]_F5.1_[T8A]_[A10G]_T5.1 (ssRNA)
RNA: B1 RNA with G31A, C32U, C33G

biological target: T1, PUF4 RNA-binding domain (Saccharomyces cerevisiae, UniProt P25339 537-888); experiment: Mg; RNA-MaP; 20 mM Na-HEPES pH 7.4, 30 mM KOAc, 0.75 mM MgCl2, 0.1% Tween-20, 5% glycerol, 0.1 mg/mL BSA, 2 mM DTT; 25 C; 0.0125-409.6 nM protein; details: tags: N-His6-TEV cleaved; C-SNAP kept, Cy3B-labelled; label: tethered on chip by stalled RNA polymerase
T1 sequence: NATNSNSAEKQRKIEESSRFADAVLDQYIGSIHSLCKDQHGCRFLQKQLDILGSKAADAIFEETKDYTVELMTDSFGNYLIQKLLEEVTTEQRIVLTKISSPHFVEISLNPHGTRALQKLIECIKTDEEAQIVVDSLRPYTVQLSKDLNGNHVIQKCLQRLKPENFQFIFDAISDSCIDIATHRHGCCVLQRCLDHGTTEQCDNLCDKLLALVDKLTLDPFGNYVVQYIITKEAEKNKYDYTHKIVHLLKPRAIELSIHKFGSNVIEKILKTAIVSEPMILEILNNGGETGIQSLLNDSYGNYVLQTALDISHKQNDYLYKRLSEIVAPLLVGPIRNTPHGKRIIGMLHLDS

Row | Binder | Kd [nM]
1 | B1 | 101
2 | B2 | 304
3 | B3 | 6.67
4 | B4 | 18.5
5 | B5 | 650
6 | B6 | 15.5
7 | B7 | 4.22
8 | B8 | 95.2
9 | B9 | 531
10 | B10 | > 2300
11 | B11 | 103
12 | B12 | 13.6
13 | B13 | 81
14 | B14 | 199
15 | B15 | 141
16 | B16 | 85.3
17 | B17 | 2.7
18 | B18 | 400
19 | B19 | 67.6
20 | B20 | 26.6
21 | B21 | 195
22 | B22 | 196
23 | B23 | 510
24 | B24 | 586
25 | B25 | 12.4
26 | UCUCUUUGUAUCUUCUCUCUU (ssRNA) [Ib_S1_P4E.1_K4.1_C4.1_H4.1_A4.1_[A6C]_F4.1_[A9C]_T4.1] | 92.5
27 | UCUCUUUGUAUGUUCUCUCUU (ssRNA) [Ic_S1_P4E.1_K4.1_C4.1_H4.1_A4.1_[A6G]_F4.1_[A9C]_T4.1] | 54.6
28 | UCUCUUUGUAUCUUGUCUCUU (ssRNA) [Ib_S1_P4E.1_K4.1_C4.1_H4.1_A4.1_[A6C]_F4.1_[A9G]_T4.1] | 25.9
29 | UCUCUUUGUAUGUUGUCUCUU (ssRNA) [Ib_S1_P4E.1_K4.1_C4.1_H4.1_A4.1_[A6G]_F4.1_[A9G]_T4.1] | 218
